{
  "source": "patent US20110294167",
  "key": {"[1]": {"test_system": "T1, ORF904 primase (residues 1-370) (Sulfolobus islandicus)", "T1 sequence": "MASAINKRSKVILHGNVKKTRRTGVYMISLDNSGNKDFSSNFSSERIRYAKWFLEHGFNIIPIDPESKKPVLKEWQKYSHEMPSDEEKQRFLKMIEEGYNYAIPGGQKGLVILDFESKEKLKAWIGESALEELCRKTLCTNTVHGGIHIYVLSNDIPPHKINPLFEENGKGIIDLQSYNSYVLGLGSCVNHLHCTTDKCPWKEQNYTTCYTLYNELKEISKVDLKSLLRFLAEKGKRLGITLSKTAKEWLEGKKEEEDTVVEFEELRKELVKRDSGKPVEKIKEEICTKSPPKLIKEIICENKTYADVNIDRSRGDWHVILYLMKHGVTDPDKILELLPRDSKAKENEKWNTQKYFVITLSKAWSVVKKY", "settings": "primer synthesis inferred from primer-free amplification with Phi29, 1500 ng primase vs Phi29 only; 10 mM MgCl2, 1 mM ATP, 30 C"}, "[2]": {"target": "T7 gp4 K318A primase (Bacteriophage T7) (UniProt P03692)", "settings": "amplification with Phi29 and T7 DNA polymerase; 10 mM MgCl2, NTPs, 30 C"}},
  "data": [
    {"substance": "M13 ssDNA (M13mp18)", "values": [
      {"measurement": "activity", "setting": "[1]", "result": 13, "unit": "fold"},
      {"measurement": "activity", "setting": "[2]", "result": 4000, "unit": "fold"}
    ]}
  ]
}
